The text below walks through data of US20100105622A1 (UNIVERSIDAD DE BARCELONA, published 2010).

This test has as its target Bovine Serum Albumin (BSA) (bovine, UniProt P02769 25-607). Kind of test: ELISA, BSA coated on the plate, rsCD6 added at several concentrations, detected with biotin-labeled anti-CD6 mAb (MAE) and streptavidin-HRP. On the technique in general: ELISA stands for enzyme-linked immunosorbent assay.

Sequence of Bovine Serum Albumin (BSA) (P02769 25-607 limits assumed): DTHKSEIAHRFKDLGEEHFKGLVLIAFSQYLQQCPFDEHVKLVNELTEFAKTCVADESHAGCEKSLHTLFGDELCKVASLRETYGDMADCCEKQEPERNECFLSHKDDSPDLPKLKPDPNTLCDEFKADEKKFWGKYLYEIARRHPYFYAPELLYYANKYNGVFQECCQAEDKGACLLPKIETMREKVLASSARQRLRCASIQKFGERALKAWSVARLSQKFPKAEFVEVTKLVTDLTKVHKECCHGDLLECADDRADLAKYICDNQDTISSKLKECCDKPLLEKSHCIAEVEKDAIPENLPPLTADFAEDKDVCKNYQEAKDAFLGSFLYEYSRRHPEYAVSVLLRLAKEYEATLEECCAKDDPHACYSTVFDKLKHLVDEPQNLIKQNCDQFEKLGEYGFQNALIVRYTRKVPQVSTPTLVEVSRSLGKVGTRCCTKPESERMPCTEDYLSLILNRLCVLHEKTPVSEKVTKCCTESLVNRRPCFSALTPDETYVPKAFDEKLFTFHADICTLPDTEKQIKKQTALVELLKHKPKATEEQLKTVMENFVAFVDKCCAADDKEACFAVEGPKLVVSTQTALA
Experimental: Twelve μg of LPS purified from E. coli O111:B4 (Sigma), Zymosan from Saccharomyces cerevisae (Sigma), peptidoglycan purified from S. aureus (Fluka) or Bovine Serum Albumin (BSA), were used to coat 96-well microtiter plates (Nunc, Roskilde, Denmark) in PBS, overnight at 4° C. Non-specific binding to the wells was prevented by the addition of PBS containing 1% BSA for 1 h at room temperature. Several concentrations of rsCD6 were then added to the wells and incubated for 3 h at room temperature. Bound protein was detected by the addition of a 1:200 dilution of biotin-labeled mAb anti-CD6 (MAE) for 1 h at RT, followed by a 1:1000 dilution of HRP-labeled streptavidin (DAKO, Glostrup, Denmark), which was incubated for 30 min at RT. Between each incubation step, unbound protein or HRP-streptavidin was washed off three times with PBS plus 0.01% Tween-20. Color was developed by adding 3,3′,5,5′-tetramethylbenzidine liquid substrate (Sigma), and the absorbance was read at 405 nm. The assay was repeated three times with similar results.

B1: rsCD6, recombinant soluble ectodomain of human CD6 (amino acids D25 to E384, immature protein numbering) (receptor, UniProt P30203 25-384, looked up)
chain: DQLNTSSAESELWEPGERLPVRLTNGSSSCSGTVEVRLEASWEPACGALWDSRAAEAVCRALGCGGAEAASQLAPPTPELPPPPAAGNTSVAANATLAGAPALLCSGAEWRLCEVVEHACRSDGRRARVTCAENRALRLVDGGGACAGRVEMLEHGEWGSVCDDTWDLEDAHVVCRQLGCGWAVQALPGLHFTPGRGPIHRDQVNCSGAEAYLWDCPGLPGQHYCGHKEDAGAVCSEHQSWRLTGGADRCEGQVEVHFRGVWNTVCDSEWYPSEAKVLCQSLGCGTAVERPKGLPHSLSGRMYYSCNGEELTLSNCSWRFNNSNLCSQSLAARVLCSASRSLHNLSTPEVPASVQTVTIE
notes: range 25-384; Used as unpurified serum-free culture supernatant to coat wells in the gp120 ELISA; also called recombinant soluble CD6; rCD6
In the case of B1, the binding result is listed as “no binding”.
